This passage reports Kd results from publication PMC2858642.

pKd: −log10 of the molar value.

The assay addresses His6-Bcl-2ΔTM G154A/G155A mutant. Description: fluorescence polarisation.

“His6-Bcl-2ΔTM G154A/G155A mutant (domain or fragment)”: the pKd was 7.52.
